# Experimental data: paper PMC4263503 (Cell, 2014)
# Like-named read-outs stand apart in the source and are kept apart here.
# B1: Human Hsp90β (natural protein)
# chain: not shown
# Assays:
# [1] = target: T1, Human Tau, hTau40 (isoform F, the longest isoform of Tau) (human, UniProt P10636-8 1-441); assay: other fluorescence titration
# [2] = target: T1, Human Tau, hTau40 (isoform F, the …); assay: other fluorescence titration; remark: listed apart in the source
binder,measurement,setting,value
B1,Kd,[1],4.8 ± 1 µM
same,Kd,[2],5.2 ± 3 µM
